Paper PMC6305486
Each block holds one substance with its values, some of them ahead of it.

Experiments:
FtsQ_(50–276) = FtsQ_(50–276) (UniProt P06136); assay: BLI; conditions: GST-e5-FtsB (mutant) in complex with k5-FtsL immobilized; FtsQ analyte 0-80 µM; parent: 0.24 ± 0.01
[1] = molecular target: e5-FtsB_(25–103)/k5-FtsL_(64–121) complex (E. coli) (UniProt P0A6S5); assay: SEC; analytical gel filtration, Superdex 200 10/300 GL, buffer B (20 mM Tris-HCl pH 8.0, 200 mM NaCl), 0.5 mL/min; high concentrations (101–370 μM); apparent Stokes radius compared with radii calculated from models
[2] = molecular target: GST-fused e5-FtsB_(25–103)/k5-FtsL_(64–121) complex (WT) (E. coli) (UniProt P0A6S5); assay: BLI; BLItz; GST-fused FtsB proteins or GST-e5-FtsB/k5-FtsL complexes immobilised on AR2G biosensor by amine coupling; FtsQ_(50–276) (WT or Y248A) in solution, 0.1–80 μM; running buffer 20 mM Tris-HCl pH 8.0, 200 mM NaCl; equilibrium analysis of points at 100 s
[3] = molecular target: GST-fused e5-FtsB_(25–103) E68A/k5-FtsL_(64–121) complex (E. coli) (UniProt P0A6S5); assay: as above
[4] = molecular target: e5-FtsB_(25–103)/k5-FtsL_(64–121) complex (E. coli) (UniProt P0A6S5); assay: SEC; analytical gel filtration, Superdex 200 10/300 GL, buffer B (20 mM Tris-HCl pH 8.0, 200 mM NaCl), 0.5 mL/min; low concentrations (6.8–22.2 μM); apparent Stokes radius compared with radii calculated from models

Chain of FtsQ_(50–276) (from UniProt P06136 50-276) (domain or fragment) (P06136 50-276): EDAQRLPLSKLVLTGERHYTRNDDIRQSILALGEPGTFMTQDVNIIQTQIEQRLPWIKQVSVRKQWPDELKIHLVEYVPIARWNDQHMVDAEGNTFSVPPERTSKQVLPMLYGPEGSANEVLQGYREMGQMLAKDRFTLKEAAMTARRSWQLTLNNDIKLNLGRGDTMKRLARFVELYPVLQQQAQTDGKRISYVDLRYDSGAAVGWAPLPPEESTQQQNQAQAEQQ
Chain of FtsQ_(50–276) (UniProt P06136) (P06136 whole entry, looked up, tested part not stated): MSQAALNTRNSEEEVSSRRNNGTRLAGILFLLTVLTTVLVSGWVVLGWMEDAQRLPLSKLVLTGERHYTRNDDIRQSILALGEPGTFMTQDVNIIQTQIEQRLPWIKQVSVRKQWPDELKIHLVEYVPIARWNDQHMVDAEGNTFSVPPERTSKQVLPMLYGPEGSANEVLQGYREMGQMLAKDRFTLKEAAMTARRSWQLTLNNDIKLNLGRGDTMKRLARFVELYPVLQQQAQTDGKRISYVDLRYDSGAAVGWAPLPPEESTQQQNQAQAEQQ

Kd (FtsQ_(50–276)): > 100 µM
Substance: GST-fused e5-FtsB_(25–103)/k5-FtsL_(64–121) complex (WT) (from UniProt P0A6S5;P0AEN4) E69R

Kd (FtsQ_(50–276)): > 100 µM
Substance: GST-fused e5-FtsB_(25–103)/k5-FtsL_(64–121) complex (WT) (from UniProt P0A6S5;P0AEN4) R72E

stoichiometry N (FtsQ:FtsB:FtsL ratio (1:1:1)) [1]: 1 | stoichiometry N (FtsQ:FtsB:FtsL ratio (2:2:2)) [1]: 1 | Kd [2]: 0.24 µM | fold reduction of affinity against WT [3]: 10 fold | stoichiometry N (FtsQ:FtsB:FtsL ratio (1:1:1)) [4]: 1 | stoichiometry N (FtsQ:FtsB:FtsL ratio (2:2:2)) [4]: 1
Substance: FtsQ_(50–276) (from UniProt P06136 50-276) (domain or fragment)

Kd (FtsQ_(50–276)): > 100 µM
Substance: GST-fused e5-FtsB_(25–103)/k5-FtsL_(64–121) complex (WT) (from UniProt P0A6S5;P0AEN4) E82R
